1 molecule from article PMC7293044 can be followed below.

The data set deals with T1, Edc3 (UniProt P39998 1-551).
T1 sequence: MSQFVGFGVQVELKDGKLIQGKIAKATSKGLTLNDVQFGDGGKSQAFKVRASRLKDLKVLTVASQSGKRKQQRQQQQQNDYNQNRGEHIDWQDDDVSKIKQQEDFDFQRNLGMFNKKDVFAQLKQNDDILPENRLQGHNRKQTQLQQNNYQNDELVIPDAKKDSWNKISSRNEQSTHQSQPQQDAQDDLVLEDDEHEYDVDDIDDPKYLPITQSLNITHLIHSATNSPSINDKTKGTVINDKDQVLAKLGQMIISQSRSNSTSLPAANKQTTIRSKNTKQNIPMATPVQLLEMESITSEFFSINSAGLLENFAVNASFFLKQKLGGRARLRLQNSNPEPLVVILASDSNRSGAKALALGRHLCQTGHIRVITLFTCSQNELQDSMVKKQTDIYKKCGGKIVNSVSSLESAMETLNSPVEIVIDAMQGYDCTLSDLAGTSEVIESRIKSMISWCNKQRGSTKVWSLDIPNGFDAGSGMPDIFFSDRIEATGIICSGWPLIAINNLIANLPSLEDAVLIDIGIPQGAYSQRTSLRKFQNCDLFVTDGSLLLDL
Kind of data set: EMSA.

B1: RPS28B 3'UTR stem-loop 60mer (WT) (structured_RNA)
RNA: AUUUUUCAAAAAAUGAAUUAAAUGAUUGAAGUCACUUAAUUUUUGUGGUUUUUUGGAGGU
Broadly, the Kd is the constant that tells how readily two partners part at equilibrium. High values mean a looser complex, low ones a tighter complex. B1 had a Kd of 2.55 µM.
